Experimental findings from US20260049138A1 (Chugai, published 2026) are described below.

Changes are numbered by the printed parent chain. Numbers in names are those of the source.

B1: GLS3000 R29P one-arm antibody (antibody, human IgG1, kappa, L234A L235A, N297A, name in Kabat numbering)
heavy: QVQLVESGGGVVQPGRSLRLSCAASGFTFSNAWMHWVRQAPGKGLEWVAQIKAKSNNYATYYAESVKGRFTISRDDSKNSLYLQMNSLKTEDTAVYYCRYVHYGAYYGVDAWGQGTTVTVSSASTKGPSVFPLAPSSKSTSGGTAALGCLVKDYFPEPVTVSWNSGALTSGVHTFPAVLQSSGLYSLSSVVTVPSSSLGTQTYICNVNHKPSNTKVDKKVEPKSCDKTHTCPPCPAPEAAGGPSVFLFPPKPKDTLMISRTPEVTCVVVDVSHEDPEVKFNWYVDGVEVHNAKTKPREEQYASTYRVVSVLTVLHQDWLNGKEYKCKVSNKALPAPIEKTISKAKGQPREPQVYTLPPSRCELTKNQVSLSCAVKGFYPSDIAVEWESNGQPENNYKTTPPVLDSDGSFFLVSKLTVDKSRWQQGNVFSCSVMHEALHNHYTQKSLSLSPDYKDDDDK
chain: EPKSSDKTHTCPPCPAPELLGGPSVFLFPPKPKDTLMISRTPEVTCVVVDVSHEDPEVKFNWYVDGVEVHNAKTKPREEQYNSTYRVVSVLTVLHQDWLNGKEYKCKVSNKALPAPIEKTISKAKGQPREPQVCTLPPSRDELTKNQVSLWCLVKGFYPSDIAVEWESNGQPENNYKTTPPVLDSDGSFFLYSKLTVDKSRWQQGNVFSCSVMHEALHNRYTQKSLSLSP
light: DIVMTQSPLSLPVTPGEPASISCRSSQSLVHSNPNTYLHWYQQKPGQAPRLLIYKVSNRFSGVPDRFSGSGSGTDFTLKISRVEAEDVGVYYCGQGTQVPYTFGQGTKLEIKRTVAAPSVFIFPPSDEQLKSGTASVVCLLNNFYPREAKVQWKVDNALQSGNSQESVTEQDSKDSTYSLSSTLTLSKADYEKHKVYACEVTHQGLSSPVTKSFNRGEC
B2: GLS3000 R54P one-arm antibody (antibody, human IgG1, kappa, L234A L235A, N297A, name in Kabat numbering)
heavy: B1 heavy
chain: B1 chain
light: B1 light with P34R, R59P
B3: GLS3000 R29V one-arm antibody (antibody, human IgG1, kappa, L234A L235A, N297A, name in Kabat numbering)
heavy: B1 heavy
chain: B1 chain
light: B1 light with P34V
B4: GLS3000 R54D one-arm antibody (antibody, human IgG1, kappa, L234A L235A, N297A, name in Kabat numbering)
heavy: B1 heavy
chain: B1 chain
light: B1 light with P34R, R59D
B5: GLS3000 R29T one-arm antibody (antibody, human IgG1, kappa, L234A L235A, N297A, name in Kabat numbering)
heavy: B1 heavy
chain: B1 chain
light: B1 light with P34T
B6: GLS3000 R54A one-arm antibody (antibody, human IgG1, kappa, L234A L235A, N297A, name in Kabat numbering)
heavy: B1 heavy
chain: B1 chain
light: B1 light with P34R, R59A
B7: GLS3000 R54G one-arm antibody (antibody, human IgG1, kappa, L234A L235A, N297A, name in Kabat numbering)
heavy: B1 heavy
chain: B1 chain
light: B1 light with P34R, R59G
B8: GLS3000 R29S one-arm antibody (antibody, human IgG1, kappa, L234A L235A, N297A, name in Kabat numbering)
heavy: B1 heavy
chain: B1 chain
light: B1 light with P34S
B9: GLS3000 R54E one-arm antibody (antibody, human IgG1, kappa, L234A L235A, N297A, name in Kabat numbering)
heavy: B1 heavy
chain: B1 chain
light: B1 light with P34R, R59E
B10: GLS3000 R29Y one-arm antibody (antibody, human IgG1, kappa, L234A L235A, N297A, name in Kabat numbering)
heavy: B1 heavy
chain: B1 chain
light: B1 light with P34Y

The assay deals with T1, CD3ε homodimer protein (human, UniProt P07766 23-126, limits assumed).
T1 construct: also called CD3 (CD3ε)
T1 sequence (P07766 23-126 limits assumed): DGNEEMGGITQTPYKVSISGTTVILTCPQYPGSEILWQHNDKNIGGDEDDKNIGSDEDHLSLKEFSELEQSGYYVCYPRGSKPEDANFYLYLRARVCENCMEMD
Put plainly: SPR Biacore T200, CD3ε homodimer on chip.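 Note: Light-chain single-residue variant antibodies injected over amine-coupled CD3ε homodimer on a CM4 chip at 25 °C, bound amount divided by that of the GLS3000-containing antibody.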
In the case of B1, the “ratio of amount bound vs unaltered GLS3000” value (from here on “ratio of amount bound”) is 0.31.
For B2 the value was 0.84; for B3, 0.34.
As for B4, the figure is 0.36; as for B5, 0.63.
As for B6, the figure is 0.69; as for B7, 0.67; as for B8, 0.68.
Consider B9, for which the “ratio of amount bound” value was 0.58.
As for B10, the “ratio of amount bound” value is 0.69.
